Laboratory results published in patent publication US20220396632A1 (VERSEAU THERAPEUTICS, published 2022).

Key:
[1] = biological target: T1, Biotin PSGL-1(105-125) peptide (human, N-terminal acetyl; C-terminal Lys-biotin); experiment: ELISA, streptavidin-bound peptide
T1 peptide: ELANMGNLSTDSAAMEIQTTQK
Method: (§1) A typical ELISA experiment involved binding of a single concentration or serially diluted mAb in assay buffer (3% BSA in PBS containing 0.05% Tween®20, pH 7.4) onto BSA blocked high binding microtiter plate half-wells (Corning Cat. #3690), which contained PSGL-1 protein or streptavidin-immobilized biotin peptide. After incubation for 45 min. at 37° C., the plate was washed 3 times with wash buffer (PBS containing 0.05% Tween®20, pH 7.4), and an appropriate HRP-conjugated secondary antibody added (25 ul/well) (HRP goat anti-mouse or anti-human IgG). After 45 min. incubation at 37° C., the plate was washed and antibody bound to plate-immobilized target was determined at A450 nm using HRP substrate (3,3′5,5′-tetramethylbenzidine (TMB)). For each antibody, duplicate values were averaged and assay background subtracted.

42-80 [2] = biological target: T2, 42-80 (C-terminal Lys-biotin); experiment: ELISA, streptavidin-immobilized biotin peptide
T2 construct: also called Biotin PSGL-1(42-80) peptide
T2 peptide: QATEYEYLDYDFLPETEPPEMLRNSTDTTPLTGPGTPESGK
Method: as §1

[3] = biological target: T3, Biotin PSGL-1(290-310) peptide (human, N-terminal acetyl; C-terminal Lys-biotin); experiment: ELISA, streptavidin-immobilized biotin peptide
T3 peptide: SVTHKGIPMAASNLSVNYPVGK
Method: as §1

[4] = biological target: T4, Biotin PSGL-1(42-62) peptide, unmodified (human, C-terminal Lys-biotin); experiment: ELISA, streptavidin-immobilized biotin peptide
T4 construct: Residues 42-62 followed by GGGK-biotin; also called WT; wild-type
T4 peptide: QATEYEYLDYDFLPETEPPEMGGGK
Method: as §1

275-295 = biological target: T5, 275-295 (N-terminal acetyl; C-terminal Lys-biotin); experiment: ELISA, streptavidin-immobilized biotin peptide [cont.]
T5 peptide: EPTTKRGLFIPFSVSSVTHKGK
Method: as §1

185-210 = biological target: T6, 185-210 (N-terminal acetyl; C-terminal Lys-biotin); experiment: as above
T6 construct: also called Biotin PSGL-1(185-210) peptide
T6 peptide: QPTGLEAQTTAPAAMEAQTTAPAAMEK
Method: as §1

131-150 = biological target: T7, 131-150 (N-terminal acetyl; C-terminal Lys-biotin); experiment: as above
T7 construct: also called Biotin PSGL-1(131-150) peptide
T7 peptide: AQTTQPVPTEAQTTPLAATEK
Method: as §1

PSGL-1(120-140) = biological target: T8, PSGL-1(120-140) (N-terminal acetyl; C-terminal Lys-biotin); experiment: as above
T8 construct: also called Biotin PSGL-1(120-140) peptide
T8 peptide: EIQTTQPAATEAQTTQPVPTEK
Method: as §1

260-280 = biological target: T9, 260-280 (N-terminal acetyl; C-terminal Lys-biotin); experiment: as above
T9 construct: also called Biotin PSGL-1(260-280) peptide
T9 peptide: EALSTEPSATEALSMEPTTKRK
Method: as §1

[5] = biological target: T10, Biotin PSGL-1(42-62) Y46A peptide (C-terminal Lys-biotin); experiment: ELISA, streptavidin-bound Ala peptide
T10 peptide: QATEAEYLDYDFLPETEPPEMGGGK

[6] = biological target: T11, Biotin PSGL-1(42-62) E45A peptide (C-terminal Lys-biotin); experiment: ELISA, streptavidin-bound Ala peptide
T11 peptide: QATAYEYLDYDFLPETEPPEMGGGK

[7] = biological target: T12, Biotin PSGL-1(42-62) L49A peptide (C-terminal Lys-biotin); experiment: alanine-scan ELISA, streptavidin-immobilized biotin peptide [cont.]
T12 peptide: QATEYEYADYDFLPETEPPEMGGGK

[8] = biological target: T10, Biotin PSGL-1(42-62) Y46A peptide; experiment: as above
P60A = biological target: T13, P60A (C-terminal Lys-biotin); experiment: as above
T13 construct: alanine-scan peptide; also called Biotin PSGL-1(42-62) P60A peptide; 60P
T13 peptide: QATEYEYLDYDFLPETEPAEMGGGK

[9] = biological target: T11, Biotin PSGL-1(42-62) E45A peptide; experiment: as above
Q42A = biological target: T14, Q42A (C-terminal Lys-biotin); experiment: as above
T14 construct: alanine-scan peptide; also called Biotin PSGL-1(42-62) Q42A peptide; 42Q
T14 peptide: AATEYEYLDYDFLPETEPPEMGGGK

[10] = biological target: T15, Biotin PSGL-1(42-62) F53A peptide (C-terminal Lys-biotin); experiment: as above
T15 peptide: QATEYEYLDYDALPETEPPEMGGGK

P59A = biological target: T16, P59A (C-terminal Lys-biotin); experiment: as above
T16 construct: alanine-scan peptide; also called Biotin PSGL-1(42-62) P59A peptide; 59P
T16 peptide: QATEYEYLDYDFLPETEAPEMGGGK

E47A = biological target: T17, E47A (C-terminal Lys-biotin); experiment: as above
T17 construct: alanine-scan peptide; also called Biotin PSGL-1(42-62) E47A peptide; 47E
T17 peptide: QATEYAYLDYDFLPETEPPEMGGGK

42-80 [11] = biological target: T2, 42-80; experiment: ELISA, streptavidin-immobilized biotin peptide, 10 nM mAb [cont.]
Method: as §1

[12] = biological target: T18, Biotin PSGL-1(42-62) D50A peptide (C-terminal Lys-biotin); experiment: ELISA, streptavidin-bound Ala peptide
T18 peptide: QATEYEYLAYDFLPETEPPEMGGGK

[13] = biological target: T19, Biotin PSGL-1(42-62) E56A peptide (C-terminal Lys-biotin); experiment: ELISA, streptavidin-bound Ala peptide
T19 peptide: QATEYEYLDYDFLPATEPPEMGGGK

[14] = biological target: T20, Biotin sY51 PSGL-1(42-62) peptide (human, sulfotyrosine at Y51; C-terminal Lys-biotin); experiment: ELISA, plate-bound peptide
T20 construct: also called Y51(SO3) PSGL-1(42-62)
T20 peptide: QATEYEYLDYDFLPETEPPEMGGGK

B1: 16E17 (antibody, V domains shown)
VH: QIQLVQSGPELKKPGETVKISCKASGYAFTTYGMSWVKQAPGKGLKWMGWINTYSGVPKYADDFKGRFAFSLETSASTAYLHINNLKNEDTATYFCGRHYYGSSYFDYWGQGTTLTVSS
VL: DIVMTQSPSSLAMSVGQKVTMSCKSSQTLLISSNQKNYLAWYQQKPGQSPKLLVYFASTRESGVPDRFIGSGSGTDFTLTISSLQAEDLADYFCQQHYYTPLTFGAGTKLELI
notes: From mouse immunisation; only variable domains given
For B1, the “fold weaker binding than to PSGL-1(ECD)-hFc1” value [1] was roughly 20 fold, the binding result (42-80 [2]) was “no binding (tested: 10 nM)” and the binding result [3] was “no binding (tested: 10 nM)”. B1: no binding (tested: 10 nM) [4].

B2: 18K07 (antibody, V domains shown)
VH: QIQLVQSGPELKKPGETVKISCEASGYTFTTYGMNWVKQAPGKGLKWMGWINTYSGVPTYADDFQGRFAFSVETSATTAYLQINNLKNEDAATYFCARSDDTYYGFAYWGQGTLVTVSA
VL: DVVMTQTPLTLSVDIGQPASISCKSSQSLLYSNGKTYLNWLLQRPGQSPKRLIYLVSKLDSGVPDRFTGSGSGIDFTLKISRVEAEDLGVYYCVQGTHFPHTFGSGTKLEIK
notes: as for B1
B2: no binding (tested: 10 nM) (275-295); no binding (tested: 10 nM) (185-210); no binding (tested: 10 nM) (131-150). B2: no binding (tested: Log M -7 (100 nM)) (PSGL-1(120-140)); no binding (tested: 10 nM) (260-280).

B3: 16L15 (antibody, V domains shown)
VH: DVKLVESGGGLVKLGGSLKLSCAASGFTFSSYYMSWVRQTPEKRLEWVATISNGGGSTYYPDSVKDRFTISRDNAKNTLYLQMSSLNSEDTAVYYCAKPLYYSNPWFAYWGQGTLVTVSA
VL: DVLLTQTPLSLPVSLGDQASISCRSSQSIVHSNGNTYLEWYLQKPGQSPKLLIYKVSNRFSGVPDRFSGSGSGTDFTLKISRVEAEDLGVYYCFQGSHVPRTFGGGTKLEIK
notes: as for B1
B3 was tested, and the EC50 [5] was 4.44 nM and the EC50 [6] was 5.34 nM.

B4: 9F9 (antibody, V domains shown)
VH: EVQLVETGGGLVQPKGSLKLSCAASGFTFNTNAMNWVRQAPGKGLEWVARIRSKSNNYATYYADSVKDRFTISRDDTQSMIYLQMNNLKTEDTGMYYCVRGGSYWYFDVWGAGTTVTVSS
VL: DVLMTQTPLSLPVSLGDQASISCRSSQSIVNSNGNTYLEWYLQKPGQSPKLLIYKVSNRFSGVPDRFSGSGSGTDFTLKISRVEAEDLGVYYCFQGSHVPWTFGGGTKLEIK
notes: Control anti-PSGL-1 mAb, recombinant; only variable domains given; also called 9F6
B4: binds [7]; binds [8]; binds (P60A). B4: binds [9]; binds (Q42A); binds [10]. B4: binds (P59A); binds (E47A).

B5: 18F02 (antibody, V domains shown)
VH: QVQLQQPGAELVKPGASVKLSCKASGYTFTSYWMHWVKQRPGQGLEWIGMIHPNSGRTNYNEKFKSKATLTVDKSSSTAYMQLSSLTSEDSAVYYCARSDYWGQGTTLTVSS
VL: DIVMTQAAFSNPVTLGTSASISCRSSKSLLHSDGITYLYWFLQRPGQSPQLLIYRMSNLASGVPDRFSGSGSGTDFTLRISRVEAEDVGVYYCAQMLEFPRTFGGGTKLEIK
notes: as for B1
In the case of B5, the binding result (42-80 [11]) is reported as “binds” and the EC50 [12] is reported as 4.27 nM.

B6: 43B6 (antibody, V domains shown)
VH: EVQLQQSGPDLVKPGALVKISCKASGYSFTAYYIHWVKQSHGKSLEWIGRVNPNTGGTSYNPKFKGKAILNVDKSSSTAYMELRSLTSEDSAVYYCARSGSPYYRYDDWGQGTTLTVSS
VL: ENVLTQSPAIMSASPGEKVTMTCRASSTVNSTYLHWFQQKSGASPKLWIYGSSNLASGVPARFSGSGSGTSYSLTISSVEAEDAATYYCQQYSGYPLTFGAGTTLELK
notes: Control anti-PSGL-1 mAb, recombinant; only variable domains given; also called 43B3
B6 was tested, and the EC50 [13] was 4.25 nM.

B7: 20I15 (antibody, V domains shown)
VH: EVKLVESGGGLVQPGGSLSLSCAASGFTFTDYYMSWVRQPPGKALEWLGFIRNKANGYTTEYSASVKGRFTISRDNSQSILYLQMNALRAEDSATYYCARTYLRRGYFDVWGTGTTVTVSS
VL: DIVLTQSPASLAVSLGQRATISCRASKSVSTSGYSYMHWFQQKPGQPPKLLIYLASNLESGVPARFSGSGSGTDFTLNIHPVEEEDAATYYCQHSRELPLTFGAGTKLELK
notes: From mouse immunisation; only variable domains given; also called 20115
For B7, the “fold weaker binding than to the peptide with all 3 sulfated tyrosines” value [14] was roughly 300 fold.
